These results are taken from article PMC10286996.

The experiment has as its target slipper limpet hemocyanin (Crepidula fornicata) (Crepidula fornicata). In words: cryo-EM structure; SLH (ion exchange flow-through) at 15 mg/ml, Chameleon grids, Glacios microscope, Relion 3.1; didecamer built with d5, tridecamer with c5 symmetry.

Where “and” joins values, the source holds several entries; their conditions need not be identical. Identical values can stand only once.

For “slipper limpet hemocyanin (Crepidula fornicata) (natural protein)”, the stoichiometry N is 20 and 30.
